Source: patent publication US20240075139A1
Residue numbers refer to the chain shown, from its start.

B1: 3T0331 (antibody, V domains shown)
VH: EVQLLESGGGLVQPGGSLRLSCEASGFPLRDYAMSWVRQAPGRGLQWVSTIGGNDNAANYADSVKGRFTVSRDNSKSTIYLQMNSLRAEDTALYFCAKSVRLSRPSPFDLWGQGSLVTVSS
VL: EIVLTQSPATLSLSPGERATLSCRASQSVSTYLAWYQHQPGQAPRLLIYEASNRATGIPARFSGSGSGTEFTLTISSLEPEDVAVYYCQQRASWPLTFGGGTKVEIK
B2: 3T0202 (antibody, V domains shown)
VH: EVQLVESGGGLVQPGGSLRLSCAASGFKFRSYDMHWVRQRSGEGLEWVAAIGTAADTYYLGSVRGRFTISRENAKNSLYLQMDSLGAGDTAVYYCARAAFGAVFFDYWGQGTLVTVSS
VL: EIVLTQSPGTLSLSSGERATLSCRASQSISSSYLVWYQQKLGQAPRLLIYGASRRATGIPDRFSGSGSGTDFTLTISRLEPEDFAVYYCQQYGNSPITFGQGTRLEIK
B3: 3T0673 (antibody, V domains shown)
VH: EVQLVESGGGRVKPGGSLRVSCAVSGITFTNAWMTWVRQAPGKGLEWLGRIKSRSDGGQSDLIAPVKGRFTISRDDSKNILYLQMNNLKTEDTGLYFCTTYYYDNGGSYSNPWGLGTLVTVSS
VL: QSVLTQPPSVSGAPGQRVTISCTGSYSNIGAGYDVLWYQQLPGTAPKLLIYGNNKRPSGVPDRFSGSKSGTSASLAITGLQAEDEADYYCQSYDSRLRDFGIFGGGTKLTVL
B4: 3T0245 (antibody, V domains shown)
VH: EVQLVESGGDLVKPGGSLRLSCEASGFTFTNAWMNWVRQSPGKGLEWIGRVKSKSDGGAADYAAPVKGRFTISRDDSKNSVFLQMRSLKPEDTGVYYCATRVHYNGMDVWGRGTTVTVSS
VL: QSVLTQPPSVSGAPGQRVTISCAGSGSNIGAGYDVHWYQQLPGTAPKLLIYANHNRPSGVPDRFSGSKSGSSASLAITGLQAEDEADYYCQSYDSSLRDACVFGGGTKLTV
B5: 5T0278 (antibody, V domains shown)
VH: EVQLVESGGGLVKPGGSLRVSCAASGFPFTDAWMSWVRQAPGKGLEWVGRIKSNSDGGIPDYAAPVKGRFTISRDDSKRTLYLQMNSLKTEDTGYYYCYTLRFFGPGNSWGQGTLVTVSS
VL: B3 VL with V18I, L36S, Y38H, T44K, K55N, A76T, S95A, F100Q, G101V, I102V
B6: 5T0465 (antibody, V domains shown)
VH: QVQLVQSGAEVREPGASVRISCKASGYTFTSASIHWVRQAPGQGLEWMGIIDPVVGKTRSERKFNGRLIMTRDTPTSTVYMELNSLRSDDTAMYYCARSGYYPRGMDVWGQGTTVTVSS
VL: SYELTQPPSVSVSPGQTASITCSGDKLGDEYVSWYQQKPGQSPVLVISRDTRRSSGIPERFSGSNSGNTATLTISGTQAMDEADYYCQAWDSSTAVVFGGGTKLTVL
B7: 3T0650 (antibody, V domains shown)
VH: EVQLVQSGGGLVKPGGSLRLSCAASGFTFSNAWMNWVRQAPGKGLEWIGRVKSQTDRGTKDYAAPVKGRFSISRDDSKKMLYLQMNSLKIEDTGVYYCVATPHSWSVAWGQGTLVTVSS
VL: QSVLTQPPSVSGAPGQRVTISCTGSSSNIGAGYDVQWYQQFPGTAPKLLIYGNINRPSGVPDRFSGSKSGSSASLAITRLQAEDEADYYCQSYDSSLRDQWVFGGGTKLTVL
B8: 3T0478 (antibody, V domains shown)
VH: VQLLQESGPGLVKPSETLSLTCTVSGGSISSYYWNWIRQSPGKGLEWMGYIYYTGSTNYNPSLKSRVTISVDLSKNQFSLKLRSVTAADTAVYYCARDKRYYDSSGYSHFDYWGQGILVTVSS
VL: QSVLTQPPSASGTPGQRVTIFCSGSSFNIGSNYVYWYQQLPGTAPKLLIYRNNERPSGVPDRFSGSKSGTSASLDISGLRSEDEADYSCAAWDGSLSGPVFGGGTKLTVL

Molecular target: EBOV Mayinga (GenBank: NC_002549) (Zaire Ebolavirus (EBOV Mayinga)) (UniProt Q05320)
UniProt Q05320, sequence (Q05320 33-676 limits assumed): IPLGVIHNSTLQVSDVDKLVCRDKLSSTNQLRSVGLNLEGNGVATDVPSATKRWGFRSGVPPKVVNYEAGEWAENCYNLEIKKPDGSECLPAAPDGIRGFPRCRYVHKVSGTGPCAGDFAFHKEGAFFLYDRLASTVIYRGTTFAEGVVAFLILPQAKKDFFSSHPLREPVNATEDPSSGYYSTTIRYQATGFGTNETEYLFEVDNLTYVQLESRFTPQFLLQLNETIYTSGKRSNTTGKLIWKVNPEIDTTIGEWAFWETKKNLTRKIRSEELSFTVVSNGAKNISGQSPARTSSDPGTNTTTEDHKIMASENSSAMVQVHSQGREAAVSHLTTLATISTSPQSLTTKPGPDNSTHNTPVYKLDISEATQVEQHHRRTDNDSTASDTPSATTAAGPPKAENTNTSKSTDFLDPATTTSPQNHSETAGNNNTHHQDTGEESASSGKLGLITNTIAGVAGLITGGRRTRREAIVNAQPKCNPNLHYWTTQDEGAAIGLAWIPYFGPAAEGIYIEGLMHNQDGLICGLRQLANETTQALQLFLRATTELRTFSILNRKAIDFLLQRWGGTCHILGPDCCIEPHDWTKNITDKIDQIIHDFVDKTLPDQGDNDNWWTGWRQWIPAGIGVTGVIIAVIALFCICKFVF
Assay: cell-based or functional assay

Row | Binder | neutralization concentration (GMC, CPE reduction on Vero C1008 cells)
1 | B1 | 0.011 µg/mL
2 | B2 | 0.53 µg/mL
3 | B3 | 0.53 µg/mL
4 | B4 | 0.63 µg/mL
5 | B5 | 0.63 µg/mL
6 | B6 | 0.66 µg/mL
7 | B7 | 0.74 µg/mL
8 | B8 | 0.78 µg/mL
